Measurements: patent US20190077860A1 (EISAI R AND D MANAGEMENT, published 2019)

Experiments:
[1] = biological target: rat EphA4 in rat hippocampal neurons (rat, UniProt D3ZZK3 20-986); assay: cell-based or functional assay
[2] = biological target: T1, human EphA4 extracellular region-SEAP-His protein (human, UniProt P54764 20-547); assay: competition ELISA, competitor human Ephrin A5-Fc
T1 construct: also called hEphA4-SEAP-His
Experimental: (§1) Antibody A obtained in Example 1 was evaluated for its inhibitory activity against the binding between human EphA4 and its human ligand according to the following steps. Each well of a 96-well plate (Nunc) was coated with an anti-alkaline phosphatase antibody (Thermo Fisher Scientific). After incubation overnight at 4° C., each well was blocked with 1% BlockAce (DS Pharma Biomedical) at room temperature for 1 hour. After washing with 0.05% Tween 20/PBS (Thermo Fisher Scientific) three times, the human EphA4 extracellular region-SEAP-His protein obtained by the method of Example 1 was added (final concentration: 10 nM) to each well and incubated at room temperature for 1 hour. After washing three times, ligands and serially diluted antibody A (0, 0.003, 0.01, 0.03, 0.1, 0.3, 1, 3, 10, 30, 100, 300, 1000, and 3000 nM) or an EphA4 inhibitor KYL peptide ([…], 0, 0.003, 0.01, 0.03, 0.1, 0.3, 1, 3, 10, 30, 100, 300, 1000, and 3000 μM, its synthesis was outsourced to Toray Research Center) were added to each well. The ligands used were biotinylated human Ephrin A5-Fc chimera (R&D Systems, final concentration: 0.7 nM) and biotinylated human Ephrin B3-Fc chimera (R&D Systems, final concentration: 2.3 nM). […] The absorbance at 450 nm was read using a microplate reader (Molecular Devices or PerkinElmer). […]

[3] = biological target: T1, human EphA4 extracellular …; assay: competition ELISA, competitor human Ephrin B3-Fc
Experimental: as §1

[4] = biological target: T2, mouse EphA4 extracellular region-SEAP-His protein (mouse); assay: competition ELISA, competitor mouse Ephrin B2-Fc
T2 sequence (chain, as listed by the source limits assumed): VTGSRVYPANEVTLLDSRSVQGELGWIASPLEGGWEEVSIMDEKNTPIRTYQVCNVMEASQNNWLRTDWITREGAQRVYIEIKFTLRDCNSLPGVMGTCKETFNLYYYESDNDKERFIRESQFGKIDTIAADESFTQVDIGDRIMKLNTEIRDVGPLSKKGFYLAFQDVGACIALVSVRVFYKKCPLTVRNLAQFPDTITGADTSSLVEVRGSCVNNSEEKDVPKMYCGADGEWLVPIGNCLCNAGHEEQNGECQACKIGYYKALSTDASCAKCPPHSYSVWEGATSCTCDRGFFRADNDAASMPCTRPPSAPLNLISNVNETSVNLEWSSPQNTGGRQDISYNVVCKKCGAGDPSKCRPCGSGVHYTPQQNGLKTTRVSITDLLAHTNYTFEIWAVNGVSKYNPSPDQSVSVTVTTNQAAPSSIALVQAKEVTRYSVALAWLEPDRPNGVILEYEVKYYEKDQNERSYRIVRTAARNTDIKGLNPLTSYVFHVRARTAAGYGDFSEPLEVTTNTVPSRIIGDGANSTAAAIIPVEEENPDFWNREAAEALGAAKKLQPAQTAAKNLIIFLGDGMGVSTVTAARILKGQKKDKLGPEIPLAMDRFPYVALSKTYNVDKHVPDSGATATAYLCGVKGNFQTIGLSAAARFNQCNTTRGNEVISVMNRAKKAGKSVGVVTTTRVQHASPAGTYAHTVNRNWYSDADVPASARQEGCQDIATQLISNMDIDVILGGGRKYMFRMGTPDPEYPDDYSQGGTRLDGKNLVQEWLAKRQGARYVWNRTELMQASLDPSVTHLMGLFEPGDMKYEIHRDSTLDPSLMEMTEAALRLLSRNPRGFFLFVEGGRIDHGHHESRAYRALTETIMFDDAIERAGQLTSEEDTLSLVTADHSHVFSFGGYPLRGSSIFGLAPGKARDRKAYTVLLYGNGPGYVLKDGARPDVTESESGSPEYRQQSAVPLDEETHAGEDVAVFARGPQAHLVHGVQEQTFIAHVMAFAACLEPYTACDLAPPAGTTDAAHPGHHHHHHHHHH
Experimental: (§2) Antibody A obtained in Example 1 was evaluated for its inhibitory activity against the binding between mouse EphA4 and its mouse ligand according to the following steps. Each well of a 96-well plate (Nunc) was coated with an anti-alkaline phosphatase antibody (Thermo Fisher Scientific). After incubation overnight at 4° C., each well was blocked with 1% BlockAce (DS Pharma Biomedical) at room temperature for 1 hour. After washing with 0.05% Tween 20/PBS (Thermo Fisher Scientific) three times, the mouse EphA4 extracellular region-SEAP-His protein obtained by the method of Example 1 was added (final concentration: 10 nM) to each well and incubated at room temperature for 1 hour. After washing three times, ligands and serially diluted antibody A (0, 0.001, 0.003, 0.01, 0.03, 0.1, 0.3, 1,3, 10, 30, 100, 300, and 1000 nM) or a known EphA4 inhibitor KYL peptide ([…], 0, 0.003, 0.01, 0.03, 0.1, 0.3, 1, 3, 10, 30, and 100 μM, its synthesis was outsourced to Hokkaido System Science) or compound 1 (0, 0.03, 0.1, 0.3, 1,3, 10, 30, 100, 300, and 1000 μM, Formula 1, Matrix Scientific) were added to each well. The ligands used were mouse Ephrin A1-Fc chimera (R&D Systems, final concentration: 20 nM) and mouse Ephrin B2-Fc chimera (R&D Systems, final concentration: 0.6 nM). […] The absorbance at 450 nm was read using a microplate reader (Molecular Devices).

[5] = biological target: T2, mouse EphA4 extracellular …; assay: competition ELISA, competitor biotinylated mouse Ephrin B2-Fc
Experimental: Antibody A-Fab and antibody A-F(ab′)₂ obtained in Example 5 were evaluated for their inhibitory activity against the binding between EphA4 and its ligand according to the following steps. Each well of a 96-well plate (Nunc) was coated with an anti-alkaline phosphatase antibody (Thermo Fisher Scientific). After incubation overnight at 4° C., each well was blocked with 1% BlockAce (DS Pharma Biomedical) at room temperature for 1 hour. After washing with 0.05% Tween 20/PBS (Thermo Fisher Scientific) three times, the mouse EphA4 extracellular region-SEAP-His protein obtained by the method of Example 1 was added (final concentration: 10 nM) to each well and incubated at room temperature for 1 hour. After washing three times, a ligand and serially diluted antibody A (0, 0.003, 0.01, 0.03, 0.1, 0.3, 1, 3, 10, 30, 100, 300, 1000, and 3000 nM), antibody A-Fab (0, 0.003, 0.01, 0.03, 0.1, 0.3, 1, 3, 10, 30, 100, 300, 1000, and 3000 nM), antibody A-F(ab′)₂ (0, 0.003, 0.01, 0.03, 0.1, 0.3, 1, 3, 10, 30, 100, 300, 1000, and 3000 nM), or the EphA4 inhibitor KYL peptide ([…], 0, 0.0003, 0.001, 0.003, 0.01, 0.03, 0.1, 0.3, 1, 3, 10, 30, 100, 300, 1000, and 3000 μM, its synthesis was outsourced to Toray Research Center) were added to each well. The ligand used was biotinylated mouse Ephrin B2-Fc chimera (R&D Systems, final concentration: 2.5 nM). After incubation at room temperature for 1 hour and subsequent washing three times, horseradish peroxidase-labeled streptavidin (GE Healthcare) was added thereto and incubated at room temperature for 1 hour. After washing three times, a TMBZ (3,3′,5,5′-tetramethylbenzidine, Sigma-Aldrich) solution was added to each well and incubated at room temperature for 2 minutes. An equal amount of a reaction stopping solution (1N H₂SO₄, Wako Pure Chemical Industries) was added to each well. The absorbance at 450 nm was read using a microplate reader (Molecular Devices or PerkinElmer).
Antibody A and antibody A-F(ab′)₂ had 1000 or more times the activity of the KYL peptide, and antibody A-Fab also had 10 or more times the activity of KYL peptide.

[6] = biological target: T2, mouse EphA4 extracellular …; assay: competition ELISA: mouse EphA4 extracellular region-SEAP-His captured on the plate, blocked ligand mouse Ephrin A1-Fc chimera (20 nM)
Experimental: as §2

[7] = biological target: T2, mouse EphA4 extracellular …; assay: competition ELISA: mouse EphA4 extracellular region-SEAP-His captured on the plate, blocked ligand mouse Ephrin B2-Fc chimera (0.6 nM)
Experimental: as §2

[8] = biological target: T1, human EphA4 extracellular …; assay: competition ELISA: human EphA4 extracellular region-SEAP-His captured on the plate, blocked ligand biotinylated human Ephrin A5-Fc chimera (0.7 nM)
Experimental: as §1

[9] = biological target: T1, human EphA4 extracellular …; assay: competition ELISA: human EphA4 extracellular region-SEAP-His captured on the plate, blocked ligand biotinylated human Ephrin B3-Fc chimera (2.3 nM)
Experimental: as §1

[10] = biological target: T2, mouse EphA4 extracellular …; assay: SPR (Biacore T200), EphA4-SEAP-His captured by anti-His antibody; Fab (monovalent), not F(ab')2
Experimental: (§3) Next, the binding affinity of antibody A-Fab and antibody A-F(ab′)₂ for mouse and human EphA4 was determined by surface plasmon resonance (SPR) using Biacore T200 (GE Healthcare). Antibody A obtained in Example 1 was used as a control for the comparison of each fragment. First, an anti-His tag antibody was immobilized on sensor chip CM5. The immobilization of the anti-His tag antibody on sensor chip CM5 was performed by the amine coupling method using N-hydroxysuccinimide (NHS) and N-ethyl-N′-(3-dimethylaminopropyl)carbodiimide hydrochloride (EDC). Ethanolamine was used in blocking (the sensor chip and the reagents for immobilization were all manufactured by GE Healthcare). The antibody was diluted with a buffer solution for immobilization (10 mM sodium acetate, pH 4.5) into 3 μg/mL and immobilized on the sensor chip according to the protocol attached to Biacore T200.
(§4) Mouse or human EphA4 extracellular region-SEAP-His protein was diluted with a running buffer solution HBS-EP (GE Healthcare, BR-1001-88), injected onto a flow cell for 120 seconds, and captured (amount of the protein captured: approximately 10 to 20 RU). Subsequently, antibody A (50, 16.7, 5.6, 1.9, 0.6, and 0 nM), antibody A-Fab (500, 166.7, 55.6, 18.5, 6.2, and 0 nM), or antibody A-F(ab′)₂ (50, 16.7, 5.6, 1.9, 0.6, and 0 nM) serially diluted using HBS-EP was added to the sensor chip for 120 seconds. […]

[11] = biological target: T1, human EphA4 extracellular …; assay: as above
Experimental: as §3, §4

[12] = biological target: T2, mouse EphA4 extracellular …; assay: SPR (Biacore T200), mouse EphA4 extracellular region-SEAP-His captured on an anti-His antibody CM5 chip, Fab as analyte at 6.2-500 nM, 1:1 fit
Experimental: as §3, §4

[13] = biological target: T1, human EphA4 extracellular …; assay: SPR (Biacore T200), human EphA4 extracellular region-SEAP-His captured on an anti-His antibody CM5 chip, Fab as analyte at 6.2-500 nM, 1:1 fit
Experimental: as §3, §4

[14] = biological target: T2, mouse EphA4 extracellular …; assay: SPR (Biacore T200), EphA4-SEAP-His captured by anti-His antibody; F(ab')2 (bivalent), not Fab
Experimental: as §3, §4

[15] = biological target: T1, human EphA4 extracellular …; assay: as above
Experimental: as §3, §4

[16] = biological target: T2, mouse EphA4 extracellular …; assay: SPR (Biacore T200), mouse EphA4 extracellular region-SEAP-His captured on an anti-His antibody CM5 chip, F(ab')2 as analyte at 0.6-50 nM, 1:1 fit
Experimental: as §3, §4

[17] = biological target: T1, human EphA4 extracellular …; assay: SPR (Biacore T200), human EphA4 extracellular region-SEAP-His captured on an anti-His antibody CM5 chip, F(ab')2 as analyte at 0.6-50 nM, 1:1 fit
Experimental: as §3, §4

T1 sequence (P54764 20-547): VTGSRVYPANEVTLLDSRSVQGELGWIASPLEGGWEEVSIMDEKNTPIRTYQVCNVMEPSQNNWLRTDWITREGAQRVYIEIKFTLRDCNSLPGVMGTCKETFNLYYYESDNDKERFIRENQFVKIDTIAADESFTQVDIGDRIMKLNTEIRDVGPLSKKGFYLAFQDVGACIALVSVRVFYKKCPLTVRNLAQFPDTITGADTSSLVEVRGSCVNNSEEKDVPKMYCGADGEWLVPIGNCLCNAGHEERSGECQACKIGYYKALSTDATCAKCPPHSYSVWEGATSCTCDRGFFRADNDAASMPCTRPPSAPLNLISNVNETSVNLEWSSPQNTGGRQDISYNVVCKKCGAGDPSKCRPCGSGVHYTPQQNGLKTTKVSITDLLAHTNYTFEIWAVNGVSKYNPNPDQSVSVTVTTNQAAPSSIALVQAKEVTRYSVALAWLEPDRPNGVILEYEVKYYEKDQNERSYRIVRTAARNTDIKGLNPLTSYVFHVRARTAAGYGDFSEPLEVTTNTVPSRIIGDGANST

B1: KYL peptide (peptide)
peptide: KYLPYWPVLSSL
notes: synthetic peptide
In the case of B1, the “IC50 of suppression of EphA4 autophosphorylation induced by mouse EphrinA1 in the hippocampal neurons” value [1] is reported as 9910 nM, the IC50 [2] is reported as roughly 6100 nM and the IC50 [3] is reported as roughly 1600 nM. It also gave an IC50 [4] of roughly 1300 nM, an IC50 [5] of 5290 nM and an IC50 [6] of 1290 nM. The IC50 [7] was 1310 nM, the IC50 [8] was 6120 nM and the IC50 [9] was 1570 nM.

B2: antibody A-Fab (Fab, V domains shown, not shown: a dimerising Fc or GST)
VH: QIQLVQSGPELKKPGETVKISCKASGYTFTDYSMHWVKQAPGKGLKWMGWINTETGEPTYADDFKGRFAFSLETSASTAYLQINNLKNEDTATYFCARIPLYYYGSRYWYFDVWGAGTTVTVSS
VL: DIQMTQSPASLSVSVGETVTITCRASENIYRNLAWYQQKQGKSPQLLVYAATNLADGVPSRFSGSGSGTQYSLKINSLQSEDFGSYYCQHFWGTPWTFGGGTKLEIKR
notes: made by papain digestion of antibody A; also called Fab fragment of antibody A
For B2, the IC50 [5] was 438 nM, the “fold activity against KYL peptide” value [5] was no less than 10 fold and the Kd [10] was 45.1 nM. It also gave a Kd [11] of 40.4 nM, a koff [12] of 0.042 s⁻¹ and a kon [12] of 931000 M⁻¹ s⁻¹. It also gave a koff [13] of 0.0373 s⁻¹ and a kon [13] of 921000 M⁻¹ s⁻¹.

B3: antibody A-F(ab')2 (other, not shown: a dimerising Fc or GST)
heavy: B2 VH
light: DIQMTQSPASLSVSVGETVTITCRASENIYRNLAWYQQKQGKSPQLLVYAATNLADGVPSRFSGSGSGTQYSLKINSLQSEDFGSYYCQHFWGTPWTFGGGTKLEIKRADAAPTVSIFPPSSEQLTSGGASVVCFLNNFYPKDINVKWKIDGSERQNGVLNSWTDQDSKDSTYSMSSTLTLTKDEYERHNSYTCEATHKTSTSPIVKSFNRNEC
notes: made by pepsin digestion of antibody A; also called F(ab')2 fragment of antibody A
In the case of B3, the IC50 [5] is reported as 2.9 nM, the “fold activity against KYL peptide” value [5] is reported as no less than 1000 fold and the Kd [14] is reported as 0.0229 nM. For the same binder, the Kd [15] was 0.053 nM, the koff [16] was 0.000205 s⁻¹ and the kon [16] was 8.98e+06 M⁻¹ s⁻¹. The koff [17] was 0.0333 s⁻¹ and the kon [17] was 629000 M⁻¹ s⁻¹.
